T1: IL-16 (Homo sapiens, UniProt Q14005)
T1 construct: Recombinant human IL-16 corresponding to the 121 C-terminal amino biologically active cytokine cleaved from natural pro-IL-16; polyhistidine (pET-30 LIC) (N, cleaved yes); made in house; host or cells: E. coli
T1 sequence (Q14005 1212-1332): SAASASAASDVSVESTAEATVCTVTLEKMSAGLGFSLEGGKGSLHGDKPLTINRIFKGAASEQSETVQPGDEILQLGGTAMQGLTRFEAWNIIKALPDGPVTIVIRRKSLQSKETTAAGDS

T2: murine IL-16 (Mus musculus, UniProt O54824)
T2 sequence (O54824 1205-1322 T1262D/E1263R/Q1264T limits assumed): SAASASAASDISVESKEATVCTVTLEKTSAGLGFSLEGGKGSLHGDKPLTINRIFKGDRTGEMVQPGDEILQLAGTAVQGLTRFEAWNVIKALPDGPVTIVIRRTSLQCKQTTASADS

T3: natural and recombinant human IL-16 (Homo sapiens, UniProt Q14005)
T3 sequence (Q14005 1212-1332 limits assumed): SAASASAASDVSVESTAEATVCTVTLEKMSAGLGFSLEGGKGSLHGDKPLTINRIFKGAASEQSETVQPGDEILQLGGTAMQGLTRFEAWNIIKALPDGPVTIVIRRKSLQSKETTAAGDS


Experiments:
IL-16 = target: T1, IL-16; test: Modified Boyden chamber chemotaxis assay: inhibition of IL-16-stimulated T lymphocyte motility; assay type: cell-based; conditions: human T lymphocytes; rIL-16 10^-9, 10^-10 or 10^-11 M; peptide 10 μg/ml; 4 h
Description: (§1) The mononuclear cell layer was washed with medium 199 (M. A. Bioproducts, Walkersville, Md.) supplemented with 0.4% bovine serum albumin, 25 mM HEPES buffer, and 100 U/ml of penicillin and 100 μg/ml streptomycin (M199-HPS). Samples were enriched for T lymphocytes by nylon wool adherence as described (Julius, et al., Eur. J. Immunol. 3:645, 1973). The nonadherent cells were >95% CD3^+ as determined by flow cytometry.
Recombinant human IL-16 corresponding to the 121 C-terminal amino biologically active cytokine cleaved from natural pro-IL-16 was produced in E. coli as a polyhistidine fusion protein using the expression vector pET-30 LIC (Novagen, Madison, Wis.). Following lysis of transformed bacteria, the protein was purified by metal chelation chromatography and the N-terminal polyhistidine tag was removed by cleavage with enterokinase.
A series of oligopeptides derived from the 16 C-terminal of human IL-16 residues were prepared (FIG. 1) and tested for their ability to […] the T lymphocyte motility using a modified Boyden chemotaxis chamber assay.
Human T lymphocytes were loaded in the upper wells, and rIL-16 at concentrations of 10^−9 M, 10^−10 M or 10^−11 M was loaded in the lower wells, in the presence or absence of two 8-mer peptides corresponding to amino acids Arg^106 to Lys^113 (SEQ ID NO:24), and Glu^114 to Ser^121 (SEQ ID NO:46) of IL-16. […] To further define the residues mediating inhibition, the eight residue sequence from Arg^106 to Lys^113 was divided into RRKS (SEQ ID NO:2) and LQSK (SEQ ID NO:48).

murine IL-16 = target: T2, murine IL-16; conditions: cited from earlier work
[1] = target: T3, natural and recombinant human IL-16; conditions: cited from earlier work
Leu 3a mAb = test: Chemotaxis assay: T cell migration in response to anti-CD4 mAb Leu 3a with peptide; assay type: cell-based; conditions: Leu 3a 0.5, 1.0, 5.0 μg/ml; peptide 10 μg/ml
Description: (§2) Cells were suspended (5×10^6 cells/ml) in M199-HPS and loaded into the upper wells, separated by an 8 μm pore size nitrocellulose membrane from lower wells. […] After a 4 h incubation at 37° C., the membranes were removed and stained with hematoxylin, dehydrated by sequential washes in ethanol and propanol, then washed in xylene to clarify the filter for cell counting by light microscopy. Cell migration was quantified by counting the number of cells in the filter that had moved beyond a depth of 50 μm in five separate fields in duplicate wells for all conditions. Cell counts were compared with unstimulated control cell migration which was normalized to 100%. Results are expressed as mean % control migration and the data analyzed for statistical significance (P<0.05) by Student=s t test.

[2] = target: HIV-1 gp120 (strain HIV-13B) (Human immunodeficiency virus type 1 group M subtype B, UniProt P04578); conditions: gp120 0.5, 1.0, 5.0 μg/ml; peptide 10 μg/ml
Description: as §2

[3] = system: Mixed Lymphocyte Reaction; test: Inhibition of the one way mixed lymphocyte reaction (MLR); assay type: cell-based, human; conditions: for capacity to inhibit the MLR: responder T lymphocytes pre-treated, 10^-8 to 10^-11 M
Description: Stimulator cells for mixed lymphocyte reactions were prepared by incubating PBMC (10^6/ml) with 25 μg/ml mitomycin C for 30 min. The cells were then washed four times with RPMI 1640 medium supplemented with 25 mM HEPES buffer, 100 U/ml penicillin, and 100 μg/ml streptomycin (RPMI 1640-HPS), then resuspended in RPMI 1640-HPS supplemented with 10% fetal bovine serum (complete medium) at 10^6 cells/ml. Responder cells were prepared from an unrelated donor, suspended in complete medium at 10^6 cells/ml, and pre-incubated (1 h, 37° C.) with control buffer, or with rIL-16 or mutated rIL-16 constructs (10^−9 M to 10^−11 M). Stimulator cells were then added (1:1) and the cell mixtures were transferred in quadruplicate to 96-well round-bottom plates. Cell cultures were pulsed with [^3H] thymidine on day 5, harvested with a Titertek cell harvester, and counted in a Becton Dickinson scintillation counter on day 6. Results are expressed as mean % cpm above background. SEM.
To determine whether other biological activities of IL-16 are mediated by the C-terminal domain, the native and mutated rIL-16 constructs were tested for their capacity of inhibiting the one way MLR. Responder T lymphocytes were pre-treated with rIL-16 or control buffer, then cultured with mitomycin C-treated stimulator PBMC from an unrelated donor. Pre-treatment with 10^−8 M native rIL-16 reduced thymidine incorporation on day 6 by nearly 70%, compared with untreated cells.

human T lymphocytes = test: Chemotaxis assay: chemoattractant activity of mutated rIL-16; assay type: cell-based; conditions: 10^-8 to 10^-11 M
Description: as §1
The native IL-16 expression vector (pET-30/L-16^121) was used as a template for PCR mutagenesis to create four recombinant IL-16 (rIL-16) mutant constructs with progressive four amino acid deletions at the C-terminus (C-4 to C-16), as well as deletions of 12 or 22 N-terminal residues. Two double deletion constructs lacking the first 12 or 22 N-terminal residues as well as the last 16 C-terminal residues of IL-16 were also produced. Point mutations in C-terminal residues of rIL-16 were generated by site-directed mutagenesis using the Stratagene Quick Change Kit (Stratagene, La Jolla, Calif.) according to the manufacturer=s specifications. The point mutations included alanine substitution for Arg^106, Arg^107, and Arg^106 plus Arg^107.
IL-16 mutant constructs were created with progressive deletions of 4 C-terminal amino acids from C-4 through C-16 (FIG. 4). The C-12 construct terminates at Ser^108, retaining the RRKS motif. The C-16 construct terminates at Ile^105, deleting RRKS and succeeding downstream residues. These mutant IL-16 molecules were tested in chemotaxis assays.

Molecule	inhibition of IL-16-stimulated T cell migration (IL-16)	chemoattractant activity of mutated rIL-16 (human T lymphocytes)	further results
RRKSLQSK [SEQ ID NO:24]	inhibited IL-16		
LQSK	Only RRKS (SEQ ID NO:2) inhibited IL-16 chemoattractant activity		
RSQRLK [SEQ ID NO:47, reference compound]	no inhibitory activity		
RRKSLQSKETTAAGDS [Arg106 to Ser121, synthetic oligopeptide corresponding to the 16 C-terminal amino acids of human IL-16]			inhibition of chemoattractant activity of murine IL-16 (murine IL-16): inhibit the chemoattractant activity; inhibition of chemoattractant activity of natural and recombinant human IL-16 [1]: inhibit the chemoattractant activity
RRKA	inhibited IL-16 as effectively as the native RRKS		
RRKSLQ	inhibited IL-16-stimulated T cell migration		
RRKS	inhibited IL-16 chemoattractant activity		blocking of cell migration in response to divalent anti-CD4 mAb Leu 3a (Leu 3a mAb): not blocked; blocking of cell migration in response to HIV-1 gp120 [2]: not blocked
ETTAAGDS [SEQ ID NO:46]	only the Arg^106 to Lys^113 peptide (SEQ ID NO:24) inhibited IL-16		
RRAS	inhibited IL-16 as effectively as the native RRKS		
N-12: rIL-16 construct with deletion of 12 N-terminal amino acids (protein) VESTAEATVCTVTLEKMSAGLGFSLEGGKGSLHGDKPLTINRIFKGAASEQSETVQPGDEILQLGGTAMQGLTRFEAWNIIKALPDGPVTIVIRRKSLQSKETTAAGDS		comparable to native IL-16	capacity to inhibit the MLR [3]: reduced but not eliminated
C-16: rIL-16 mutant terminating at Ile^105, deleting RRKS and succeeding downstream residues (protein) SAASASAASDVSVESTAEATVCTVTLEKMSAGLGFSLEGGKGSLHGDKPLTINRIFKGAASEQSETVQPGDEILQLGGTAMQGLTRFEAWNIIKALPDGPVTIVI		completely eliminated the chemoattractant activity	shift of the dose response of MLR inhibition versus native rIL-16 [3]: ~1 log; capacity to inhibit the MLR [3]: nearly as active as native rIL-16
Arg^107 alone: rIL-16 point mutation Arg^107 to alanine (protein) SAASASAASDVSVESTAEATVCTVTLEKMSAGLGFSLEGGKGSLHGDKPLTINRIFKGAASEQSETVQPGDEILQLGGTAMQGLTRFEAWNIIKALPDGPVTIVIRAKSLQSKETTAAGDS		completely abrogated chemoattractant activity	
Arg^106 plus Arg^107: rIL-16 point mutation Arg^106 plus Arg^107 to alanine (protein) SAASASAASDVSVESTAEATVCTVTLEKMSAGLGFSLEGGKGSLHGDKPLTINRIFKGAASEQSETVQPGDEILQLGGTAMQGLTRFEAWNIIKALPDGPVTIVIAAKSLQSKETTAAGDS		completely abrogated chemoattractant activity	
native rIL-16: Recombinant human IL-16, 121 C-terminal amino acids of pro-IL-16, produced in E. coli (protein) SAASASAASDVSVESTAEATVCTVTLEKMSAGLGFSLEGGKGSLHGDKPLTINRIFKGAASEQSETVQPGDEILQLGGTAMQGLTRFEAWNIIKALPDGPVTIVIRRKSLQSKETTAAGDS			reduction of thymidine incorporation in MLR compared with untreated cells ([3]; pre-treatment with 10^-8 M, day 6): ~70%
Arg^106 alone: rIL-16 point mutation Arg^106 to alanine (protein) SAASASAASDVSVESTAEATVCTVTLEKMSAGLGFSLEGGKGSLHGDKPLTINRIFKGAASEQSETVQPGDEILQLGGTAMQGLTRFEAWNIIKALPDGPVTIVIARKSLQSKETTAAGDS		retained full activity	
N-22: rIL-16 construct with deletion of 22 N-terminal amino acids (protein) TVTLEKMSAGLGFSLEGGKGSLHGDKPLTINRIFKGAASEQSETVQPGDEILQLGGTAMQGLTRFEAWNIIKALPDGPVTIVIRRKSLQSKETTAAGDS		comparable to native IL-16	capacity to inhibit the MLR [3]: reduced but not eliminated
C-12: rIL-16 mutant with deletion of 12 C-terminal residues, retaining the RRKS motif (protein) SAASASAASDVSVESTAEATVCTVTLEKMSAGLGFSLEGGKGSLHGDKPLTINRIFKGAASEQSETVQPGDEILQLGGTAMQGLTRFEAWNIIKALPDGPVTIVIRRKS		active as native rIL-16	
